Assays:
Assay in all cases: protein microarray
Settings in all cases: Protein microarray binding buffer, salt, pH and temperature not given in the material
[1] = tested on: Pcs60 (Saccharomyces cerevisiae)
[2] = tested on: Npl3 (Saccharomyces cerevisiae)
[3] = tested on: Rrp5 (Saccharomyces cerevisiae)
[4] = tested on: Khd1 (Hek2) (Saccharomyces cerevisiae)
[5] = tested on: Gcy1 (Saccharomyces cerevisiae)
[6] = tested on: Scp160 (Saccharomyces cerevisiae)
[7] = tested on: Ydl124w (Saccharomyces cerevisiae)
[8] = tested on: She2 (Saccharomyces cerevisiae)
[9] = tested on: Mdh3 (Saccharomyces cerevisiae)

## ASH1 mRNA
[1]
  binding signal (normalized mean signal (Cy3); Cy5 89.8): 3.7
[2]
  binding signal (normalized mean signal (Cy3); Cy5 153.8): 7.1
[3]
  binding signal (normalized mean signal (Cy3); Cy5 14.6): 3.8
[4]
  binding signal (normalized mean signal (Cy3); Cy5 24.0): 3.4
[5]
  binding signal (normalized mean signal (Cy3); Cy5 19.6): 8.9
[6]
  binding signal (normalized mean signal (Cy3); Cy5 117.7): 2.9
[7]
  binding signal (normalized mean signal (Cy3); Cy5 14.6): 11.9
[8]
  binding signal (normalized mean signal (Cy3); Cy5 17.8): 17.1
[9]
  binding signal (normalized mean signal (Cy3); Cy5 60.2): 2.9

Source: paper PMC2937035
